According to the supplement of paper PMC12764529:

Assay: folding stability dG unfold (combined trypsin and chymotrypsin); higher = more stable
Procedure: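 Folding stability of de novo designed mini-proteins (<80 aa, no Cys; designed by TrROS, TrMRF, ProteinMPNN and the joint model) was measured by cDNA display proteolysis with trypsin and chymotrypsin. Each protease was used at 11 concentrations in a threefold dilution series plus a no-protease condition. K50 was inferred by Bayesian fitting of sequencing counts, and dG unfold was derived against a sequence-predicted unfolded-state K50 (Tsuboyama et al. method). Sequences shown include variable-length N-terminal GS-type padding (SAGGSAGG...) inside a display construct carrying a PA tag. Rows were kept only if the AF2 dimer inter-PAE was >15, to exclude likely homo-oligomers.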

## SAGGSAGGSAGMEEIKERYRKELEAEGRPVKEIKAEKLPPTNTIVVTLDFENKPIVIPLPSAGGSAGGSAGG [r11_279_JUSTAS]
  folding stability dG unfold: < -1 kcal/mol

## SAGDRKVIHINGFEPEQFRKIIREAKDKGPPGDRIWIPSPEYVDELKELDPNLPVEVHNMDNGEWQEIESAG [r5_391_TrROS]
  folding stability dG unfold: < -1 kcal/mol

## SAGGNLKIEMGDNPHEIPVDPNQVDTPEEAIEEVADQIRNRFPQFGPFRVRVETEGGKEIAMINIKPKSAGG [r13_257_TrROS]
  folding stability dG unfold: < -1 kcal/mol

## SAGGIKELADEGAEIKDVTWPVRFPDGNPMRITEIKPTDGGLDIRFEPPNDGREQEHPIPPDNIEPLPSAGG [r13_340_TrROS]
  folding stability dG unfold: < -1 kcal/mol

## SAGGSAGGSNVEIDTTRTPDRYTVKIRFPDNGKKVEIPFDPGQPPNQAKDRAKELAKKNGIKISAGGSAGGS [r12_764_TrROS]
  folding stability dG unfold: < -1 kcal/mol

## SAPYIRKVTYTTTFYPPDGTPVQSTKPTTEPVDPAEKDTTTTSTTALPDGGSVTTTSTTTVEPAEPALLSAG [r14_268_JUSTAS]
  folding stability dG unfold: < -1 kcal/mol

## SAGGSAGGMEAVLEALKELPPDEEKVITVPHPDDPRYVVRFTLRRKGDEIEIPVEKKPIPPGLASAGGSAGG [r6_392_TrMRF]
  folding stability dG unfold: < -1 kcal/mol

## SAGGSAGGSAGMPVIEEKLVFYTGDGTPREKKVKVTTTPLPNGTTKKTYDIPKDEIKKLPSAGGSAGGSAGG [r11_816_JUSTAS]
  folding stability dG unfold: < -1 kcal/mol

## SAGGSAGGSAGGYRIKIKMPNGRPREIPLEPDDPEEVKEQAKELSSRGYDVTKVEVEPPSAGGSAGGSAGGS [r10_231_TrROS]
  folding stability dG unfold: < -1 kcal/mol

## SAGGSAGGSAPKPIERVEVGSFTLPPGRRVFPVRARIRGTGEVVVVATDGAPVEEVLKAVEASAGGSAGGSA [r18_345_TrMRF]
  folding stability dG unfold: < -1 kcal/mol

## SAGGSAGGSAGGAKELADRMRDAGYEPEADPDSGKIEVRHPNPNGKRMKREINIPPEDISAGGSAGGSAGGS [r10_1173_TrROS]
  folding stability dG unfold: < -1 kcal/mol

## SAGGDKIQEKLQKEGGFRPTNTEVNGGKPKIHIHWPNPERRKKLKEKLKKDPGIEEVQIQPMDPEDMSAGGS [r16_671_TrROS]
  folding stability dG unfold: < -1 kcal/mol

## SAGGMPLEKIKEIKLVKEKEDGEKEILIVVEDPELVKEGNVEEVKKLAEALAEELKKKGIKVKIEVKPSAGG [r13_243_TrROS_Hall]
  folding stability dG unfold: < -1 kcal/mol

## SAGGSAGGSSMPSDVPVDIPVKVTRTVPNGPTSEEELVLSTTRPDASIEEVLEELKKKGWTIESAGGSAGGS [r20_27_JUSTAS]
  folding stability dG unfold: < -1 kcal/mol

## SAGGSAGGDYKLEPDDIEPMPDGWYQVEIEIEQRDPDGEPETRDIPVWMPPGQTAKDMAKWLIKSAGGSAGG [r6_329_TrROS]
  folding stability dG unfold: < -1 kcal/mol

## SAGGSAGGSAGPWKVITHTIDIPPGADELPIRLPGNGIEAKIMSVDPGNGTITVEIYVPDSAGGSAGGSAGG [r17_198_TrROS]
  folding stability dG unfold: < -1 kcal/mol

## SAGGSAGGSAGMTVEVKKLSTPRYEKIITITTETTVKDPNSAKPLTTETVTTIERDEVSLSAGGSAGGSAGG [r17_124_JUSTAS]
  folding stability dG unfold: < -1 kcal/mol

## SAGGSAGGSAGGNPGQEVTYQIKIPIRDKNGEPDWKIDIPVTMDTPQDADRFAKEIAKRSAGGSAGGSAGGS [r10_57_TrROS]
  folding stability dG unfold: < -1 kcal/mol

## SAGGSAGGSAGGMKVETRTITDPGGIEKVKEDYPGYTVEKTEKLPDGSTKVTLKYPILKSAGGSAGGSAGGS [r10_764_JUSTAS]
  folding stability dG unfold: < -1 kcal/mol

## SAGGDYVSITIDDPNPGMPPEELAQEIIRELNPDGFPIKPKKIEPERHDGRPKVTITFRVDDPEAIKKSAGG [r13_979_TrROS]
  folding stability dG unfold: < -1 kcal/mol

## SASPLVPVETEVLEEETLPDGTLRILTRRTVGDTTILDVRDRGPGGEILRESSSVDTSSNTTTRDVSVLSAG [r14_189_JUSTAS]
  folding stability dG unfold: < -1 kcal/mol

## SAGGSAGGSMKYLVRFPEGGSLPFPDGSSVPMKPGEVLEVESPADVEALKKLAPGRDIEVEPVSAGGSAGGS [r12_987_TrMRF]
  folding stability dG unfold: < -1 kcal/mol

## SAGMVIPATSEEEAEAFAKELGPETGYEVEIEKVPADEPVEDVDPNDILVVLPESGTVYRIHVRRPDEESAG [r5_173_TrMRF]
  folding stability dG unfold: < -1 kcal/mol

## SAGGSAGGSVVIPMEDLSNMPWERIRDQIKKSPDPVTITMPNPEGMKRAQDLFKEEGVPITVVSAGGSAGGS [r12_97_TrROS]
  folding stability dG unfold: < -1 kcal/mol

## SAGGSAGGSAGGSMPTATLVEKEKDPVEDIITYKINTPPDKTEIIKYSPENPISESDIISAGGSAGGSAGGS [r4_481_JUSTAS]
  folding stability dG unfold: < -1 kcal/mol

## SAGGSAGGSAGKTISLKELMKNGNPEKALEFLKKIKEANPKPKIKLIEIDENFDAKYDINSAGGSAGGSAGG [r11_365_TrMRF]
  folding stability dG unfold: < -1 kcal/mol

## SAGGPGPPPLEPVVVPVDDGVAVFTRSPDGSLHVEIGPRSGPVVASATAPLPEDSELTVDAVVLPEELSAGG [r13_584_TrMRF]
  folding stability dG unfold: < -1 kcal/mol

## SAGGSAGGSSAITHPDSDAGVAPVATTRSPNATPETVLRDDSPDPRRWILTASGERRVEPLLESAGGSAGGS [r12_205_JUSTAS]
  folding stability dG unfold: < -1 kcal/mol

## SAGGSAGGSAGGTIEGLPKEQLRDIFKDHGMPPDEFPPGQPVQFNIPNKNPIKVRVTDLSAGGSAGGSAGGS [r10_623_TrROS]
  folding stability dG unfold: < -1 kcal/mol

## SAGGSAGGSASPKQVPITIEIQTPNKPRKITFPIPEGQEGGPEEIMDRLADDGNYKIDRITSAGGSAGGSAG [r3_31_TrROS]
  folding stability dG unfold: < -1 kcal/mol

## SAGGSAGGSAGMTPEEAEKEAAEKIKNELIAKGYPEAKVEVKSPVKVDEVNNTFTLDIDIKKSAGGSAGGSA [r18_517_JUSTAS]
  folding stability dG unfold: < -1 kcal/mol

## SAGIKIEWDPDEGYIKIEMPYDSPAEANENIQEIHEKFGLKDVTAERDPNNGTVEHTIRIKNPEALKELSAG [r5_598_TrROS]
  folding stability dG unfold: < -1 kcal/mol

## GEVLVAKIELKVKKKLPEKPEEVEEKLELEFVAPIDNPEALEKAEEIAKKLAEEIGATEVKIKVEPYILPES [r1_346_TrMRF]
  folding stability dG unfold: < -1 kcal/mol

## SAGGSAGGSAGLEIPPELTVTSTFTVPPSGRRVLELLNPATNEPVVLDLETGEIHPSEALSAGGSAGGSAGG [r11_268_JUSTAS]
  folding stability dG unfold: < -1 kcal/mol

## SAGGSAGGSAGGGSPAEQLREMAKQIPPVEIRFPGPGKERTIPDPDNFQEKGWKITEIEFSAGGSAGGSAGG [r7_504_TrROS]
  folding stability dG unfold: < -1 kcal/mol

## SAGGSAGGSGSGSVTVPVTSTDPVTGKPSVSTVTVSLDVVPPPPVPATVFFDPVRGRRSTDLGGSAGGSAGG [r6_926_JUSTAS]
  folding stability dG unfold: < -1 kcal/mol

## SAGGSAGGSATIRPGEPIRIKIKYPNPDGKPQERTYNGNVPPGSTLEELADNFPGYKVEIEKSAGGSAGGSA [r18_279_TrROS]
  folding stability dG unfold: < -1 kcal/mol

## SSITFPVPKEEKEPDPDGDPHPRREPKPVPIPPDAIRDQIYNMIRTELRDAGLPDMTEEDIDDPEFIDRLSA [r9_263_TrROS]
  folding stability dG unfold: < -1 kcal/mol

## SAGGSATIEIDPPHGKIEIEVNVPVYEKRKDPDGKEEPEPQELPPEEAQEFAKMMADTFAQKLNGKSAGGSA [r15_365_TrROS]
  folding stability dG unfold: < -1 kcal/mol

## SAGGSAGGSAPFTAKEAADYAAWKIQKRLKKEGNPDKEITIKAPIEWDPEDGIFRAKIQIEYSAGGSAGGSA [r18_517_TrROS]
  folding stability dG unfold: < -1 kcal/mol

## SAGGSAGGSAGGSSTVLETEVTPTSEPRLLTKTLIEEFPPDNPEKPVLSVKETVLPVLLSAGGSAGGSAGGS [r4_265_JUSTAS]
  folding stability dG unfold: < -1 kcal/mol

## SAGGMTLESEVTTLPDGTVVTKTTTVYPDGTVTTKTTTTSVPAGPPTVVRTLPDGSRVRDPTGEWTALSAGG [r13_151_JUSTAS]
  folding stability dG unfold: < -1 kcal/mol

## SMELLEAVKKGVKTVTVLLKPGDEEKVKLAAELPVNIVLKASPEISEEVFKKIPGINLTEVKPLSPEELPSA [r9_671_JUSTAS]
  folding stability dG unfold: < -1 kcal/mol

## SAGGSAGGSAGGSMSWDDRPPVISTSVVKLPIEPGTVVKEGSKTYVAKPDGTVTVIDPRSAGGSAGGSAGGS [r4_394_JUSTAS]
  folding stability dG unfold: < -1 kcal/mol

## SAGGSAGGSAGGKKKKIKLFIDHYFDGPPNINPEKIEKELKEKGIDVEVVLNALPKENKKSAGGSAGGSAGG [r7_355_TrMRF]
  folding stability dG unfold: < -1 kcal/mol

## SAGGSAGGSAGGMALEPKTVTSTLTVFFPDTGKTYPLTETVFIPTKFNLPLPPFPPETLSAGGSAGGSAGGS [r10_1026_JUSTAS]
  folding stability dG unfold: < -1 kcal/mol

## SAGGSAGGSAGMKLEELAKEAEERYREEGGDAVIDLVVEREDDKKEPFILEIGKKGLKIESAGGSAGGSAGG [r11_954_TrMRF]
  folding stability dG unfold: < -1 kcal/mol

## SAGGSAGGSVIRIPPDDLRANLKPGMMVMIKDPGKPRMFPWDDLDKLPPNDPVEIEIIPMEPGSAGGSAGGS [r12_501_TrROS]
  folding stability dG unfold: < -1 kcal/mol

## SAGGSAGGSAGGIRLSPEFRELLKDAPPSPGQKREINFPNGYQITYTVKGNKIDDIEWTPSAGGSAGGSAGG [r7_611_TrROS]
  folding stability dG unfold: < -1 kcal/mol

## SAGGSAGGSAGEKPIYYRIKHRNPANGQKVKHEIPFPPNDADEIKEQMEKQPGIDEIEPFSAGGSAGGSAGG [r17_438_TrROS]
  folding stability dG unfold: < -1 kcal/mol

## SAGGSAGGSDPNIKVEIWHPNNGQPRTFPAGDSIDELAENMPGPVQIKIEYPGKEKTLMIPFKSAGGSAGGS [r12_1056_TrROS]
  folding stability dG unfold: < -1 kcal/mol

## SAGGSAGGSSYTLVRVVEHPDSVVEYYKAPDGTVIVKRNDEEIEIPPSVPASSLPEDADVVLESAGGSAGGS [r12_594_JUSTAS]
  folding stability dG unfold: < -1 kcal/mol

## GMILFKVKLTDPKGKKEIAEVDIPIPVPEEVLPAMPEELKEKLREEAEKAAEEIREKLGNVLVEPEFTLLES [r1_115_JUSTAS]
  folding stability dG unfold: < -1 kcal/mol

## SAGGSAGGSAGSEELAKEIEDIAQEQGFPIKDVEIERNPPNGYYSIEVRHKGNPVTIPIPSAGGSAGGSAGG [r11_279_TrROS]
  folding stability dG unfold: < -1 kcal/mol

## SAGGSAGGSAGGMKITVKTSYDPSRPVFYEEVYPPGGEPISRKVIEIPPAEPKLIEELLSAGGSAGGSAGGS [r10_717_JUSTAS]
  folding stability dG unfold: < -1 kcal/mol

## SAGGSAGGSAGGFPNMPIKEIKIDNPERVPGKPRVRIEFTFPGGPRKFMMPADDLQDMFSAGGSAGGSAGGS [r10_771_TrROS]
  folding stability dG unfold: < -1 kcal/mol

## SAGGKITIEMPEDGMYRITIRNPNKGEPVSEIPIPANQIQELAKENGEPMPIEDIVRKLGYPIEIERYSAGG [r13_836_TrROS]
  folding stability dG unfold: < -1 kcal/mol
